Assays:
[1] = molecular target: SARS-CoV-2 WA.1 spike protein (V-PLEX COVID-19 Panel 24) (SARS-CoV-2 WA.1 (ancestral), UniProt P0DTC2, strain); test: electrochemiluminescence multiplex binding assay
[2] = molecular target: recombinant SARS-CoV-2 RBD (SARS-CoV-2, ancestral strain (assumed), UniProt P0DTC2); test: BLI

B1: 002-S21F2 full-length immunoglobulin G (IgG) (antibody, V domains shown)
VH: EVQLVQSGAEVKKPGESLKISCKASGYNFAYYWIGWVRQMPGKGLEWMGIIYPGDSDTRYSPSFQGQVTISADKSISTAYLQWSSLKASDTAMYYCARGEMTAVFGDYWGQGTLVTVSS
VL: DIQMTQSPSSLSASVGDRVTITCQASQDISNYLNWYQQKPGKAPKLLIYDASNLETGVPSRFSGSGSGTDFTLTISSLQPEDIATYYCQQYKILLTWTFGQGTKVEIK
B1: binds [1]; binds [2].

— paper doi:10.1101/2022.05.13.491770 (bioRxiv, 2022)
